Where no end group is shown, it is not given here. [ ]: non-standard residue; d: D form. The star is where a group is joined. ClAB‑L‑Phe = N-[3-(2-chloroacetamido)benzoyl]-L-phenylalanine, O=C(CCl)Nc1cccc(C(=O)N[C@@H](Cc2ccccc2)C(=O)*)c1; puromycin = COc1ccc(C[C@H](N*)C(=O)N[C@H]2[C@@H](O)[C@H](n3cnc4c(N(C)C)ncnc43)O[C@@H]2CO)cc1; An21 Pu‑linker = not defined here

The target of test [1] is T1, human serum albumin (HSA) (Homo sapiens, UniProt P02768). In words: Pull-down of peptides displayed as An21-type complexes with HSA-immobilized SA beads, recovered cDNA quantified by real-time PCR. The class given is binding. The note with it: An21-type display complexes; HSA-immobilized SA beads vs SA beads free of HSA; FIG. 5e. The procedure: Derivative peptides having reverse and shuffled sequences of the selected peptides (p1 and p2) and the original peptide were prepared as the An21-type complexes. […] Furthermore, since the bonding activity to HSA is lost when the amino acid sequence of the obtained cyclic peptide is reconfigured (reversed or shuffled), it could be seen that the bond of peptide to HSA is sequence-dependent (FIG. 5e).
mRNAs of p1 and p2 were synthesized from the colony PCR product. The reverse or shuffled sequences of the mRNAs of the p1 and p2 peptides were prepared as follows. The DNA template was prepared using T7SD8M2.F44 as the forward primer, and SD8No38revG5S4.R69, SD8No38ranG5S4.R69, SD8No41revG5S4.R75 or SD8No41ranG5S4.R75 as the reverse primer. An elongation PCR and transcription were performed by a method similar to the method used in preparation of T7-mRNA. mRNA was purified by phenol/chloroform extraction and 2-propanole precipitation, and dissolved in ultrapure water.
Translation (2 μL), reverse transcription (4 μL), and the quenching reaction (5.25 μL) were performed by the above method.
2 μL of the obtained solution was mixed with HSA immobilized SA beads (0.3 pmol HSA) or SA-beads. After incubation at room temperature for 10 min., the beads were washed three times with 10 μL of HBST. […] The recovered cDNA was quantified with real-time PCR.

In test [2] the target is T1, human serum albumin (HSA). Kind of test: Bonding assay of chemically synthesized peptides by Bio-Layer Interferometry (BLI method). The test is classed as binding. The following applies: 50 mM Hepes-KOH pH 7.5, 300 mM NaCl, 0.05% Tween20, 0.001% DMSO, 30° C.; peptide 1-16 nM; FIG. 8. The procedure: (§1) Next, these peptides were chemically synthesized by Fmoc solid phase synthesis, and the bond to HSA was assessed using the Bio-Layer Interferometry method (BLI method). A bonding assay was performed under the condition of 50 mM Hepes-KOH pH 7.5, 300 mM NaCl, 0.05% Tween20 and 0.001% DMSO at 30° C. Each step of the assay consists of the bond reaction of peptide to HSA being 500 s, and the dissociation reaction being 500 s. The peptide solution was created by the following dilution series (p1: 16, 12, 8, 2, 1 nM, and p2: 16, 12, 8, 4 nM).

In test [3] the target is T2, human serum albumin (human, UniProt P02768 25-609).
T2 construct: also called HSA
In words: Bio-Layer Interferometry (BLI), synthetic peptide at 16, 12, 8, 4 nM, 30 C. The protocol:
as §1

The target in test [4] is T2, human serum albumin. In words: Bio-Layer Interferometry (BLI), synthetic peptide at 16, 12, 8, 2, 1 nM, 30 C. The procedure:
as §1

For test [5], the target named is T2, human serum albumin. Kind of test: pull-down of the An21-type display complex on HSA-immobilized SA beads, recovered cDNA quantified by real-time PCR. The procedure:
Derivative peptides having reverse and shuffled sequences of the selected peptides (p1 and p2) and the original peptide were prepared as the An21-type complexes. The obtained complexes were subjected to pull-down using the HSA-immobilized SA beads and the SA beads free of HSA, and the recovered cDNA was quantified, which provided the result that p1 and p2 actually bond with HSA (FIG. 5e). Furthermore, since the bonding activity to HSA is lost when the amino acid sequence of the obtained cyclic peptide is reconfigured (reversed or shuffled), it could be seen that the bond of peptide to HSA is sequence-dependent (FIG. 5e).

Turning to “XSQWDPWAIFWC ([ClAB‑L‑Phe]SQWDPWAIFWC; thioether (positions not given here); not fully specified (bridges)) [p2, X is ClAB-L-Phe, cyclized by thioether bond with Cys]”, the “bond with HSA (recovered cDNA after pull-down)” value in test [1] is “actually bond with HSA”. For the same molecule, the “bond to HSA (BLI binding curve)” value in test [2] was “bond to HSA”.

In the case of “XTYNERLFWC ([ClAB‑L‑Phe]TYNERLFWC; thioether (positions not given here); not fully specified (bridges)) [p1, X is ClAB-L-Phe, cyclized by thioether bond with Cys]”, in test [1], the “bond with HSA (recovered cDNA after pull-down)” value was “actually bond with HSA”. Also, in test [2], the “bond to HSA (BLI binding curve)” value is on record as “bond to HSA”.

B1: p2: XSQWDPWAIFWC (X is ClAB-L-Phe), chemically synthesized cyclic peptide (peptide)
peptide: [ClAB‑L‑Phe]SQWDPWAIFWC
modifications: thioether (positions not given here); not fully specified (bridges)
notes: Made by Fmoc solid phase synthesis for the BLI assay; also called compound p2
Take B1: the binding result in test [3] was “binds”.

B2: p1: XTYNERLFWC (X is ClAB-L-Phe), chemically synthesized cyclic peptide (peptide)
peptide: [ClAB‑L‑Phe]TYNERLFWC
modifications: thioether (positions not given here); not fully specified (bridges)
notes: Made by Fmoc solid phase synthesis for the BLI assay; also called compound p1
Take B2: the binding result in test [4] is “binds”.

B3: Reversed p1, displayed as An21-type complex (peptide)
peptide: [ClAB‑L‑Phe]WFLRENYTCGGGGGS-{puromycin-An21 Pu‑linker}
modifications: thioether (positions not given here); not fully specified (bridges); reading uncertain; also: Pu-linker annealed to its mRNA/cDNA (display complex)
notes: also called No38rev
Consider B3, for which, in test [5], the binding result was “no binding”.

B4: Shuffled p2, displayed as An21-type complex (peptide)
peptide: [ClAB‑L‑Phe]DQSPWWWIAFCGGGGGS
modifications: thioether (positions not given here); not fully specified (C-terminus, bridges); also: C-terminal Pu-linker annealed to its mRNA/cDNA (display complex)
notes: also called No41ran
As for B4, the binding result in test [5] is “no binding”.

B5: Reversed p2, displayed as An21-type complex (peptide)
peptide: [ClAB‑L‑Phe]WFIAWPDWQSCGGGGGS
modifications: thioether (positions not given here); not fully specified (C-terminus, bridges); also: Pu-linker annealed to its mRNA/cDNA (display complex)
notes: also called No41rev
In the case of B5, in test [5], the binding result is “no binding”.

B6: Shuffled p1, displayed as An21-type complex (peptide)
peptide: [ClAB‑L‑Phe]RFETLNWYCGGGGGS-{puromycin-An21 Pu‑linker}
modifications: thioether (positions not given here); not fully specified (bridges); reading uncertain; also: C-terminal Pu-linker annealed to its mRNA/cDNA (display complex)
notes: also called No38ran
Turning to B6, the binding result in test [5] was “no binding”.

Values taken from US20160068835A1, “FLEXIBLE DISPLAY METHOD” (PEPTIDREAM INC., priority 2013, published 2016).
